Assay results from US20260125451A1 (JIANGSU HENGRUI PHARMACEUTICALS, published 2026).
Like-named read-outs stand apart in the source and are kept apart here.

T1: type I interferon (IFN) receptor subunit 1 (IFNAR1) (human, UniProt P17181 28-557)
T1 sequence (looked up): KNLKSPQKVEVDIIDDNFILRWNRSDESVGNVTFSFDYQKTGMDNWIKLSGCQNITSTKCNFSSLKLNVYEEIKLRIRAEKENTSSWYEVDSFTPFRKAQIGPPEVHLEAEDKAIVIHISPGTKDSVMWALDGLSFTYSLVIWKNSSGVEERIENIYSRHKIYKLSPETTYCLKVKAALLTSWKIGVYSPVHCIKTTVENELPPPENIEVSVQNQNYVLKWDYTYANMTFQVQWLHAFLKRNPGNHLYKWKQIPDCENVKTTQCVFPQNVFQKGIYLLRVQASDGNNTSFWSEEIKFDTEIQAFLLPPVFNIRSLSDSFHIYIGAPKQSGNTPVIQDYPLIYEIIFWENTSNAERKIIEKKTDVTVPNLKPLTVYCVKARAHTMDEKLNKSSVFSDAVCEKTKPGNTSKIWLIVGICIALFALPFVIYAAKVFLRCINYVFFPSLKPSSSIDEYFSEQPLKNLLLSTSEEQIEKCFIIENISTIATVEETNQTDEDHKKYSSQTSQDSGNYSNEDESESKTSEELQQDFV

T2: recombinant human ARPIL (R&D cat: 5860-AP-010/CF) (human, UniProt O75888 105-250, limits assumed)
T2 sequence (looked up): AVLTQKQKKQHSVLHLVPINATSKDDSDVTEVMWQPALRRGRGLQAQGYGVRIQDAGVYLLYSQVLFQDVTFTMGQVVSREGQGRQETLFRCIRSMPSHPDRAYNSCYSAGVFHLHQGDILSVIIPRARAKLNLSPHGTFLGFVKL

T3: APRIL (Acro Biosystems, Cat: APL-H52D1) (UniProt O75888 115-250, limits assumed)
T3 construct: also called ARPIL; A proliferation-inducing ligand
T3 sequence (looked up): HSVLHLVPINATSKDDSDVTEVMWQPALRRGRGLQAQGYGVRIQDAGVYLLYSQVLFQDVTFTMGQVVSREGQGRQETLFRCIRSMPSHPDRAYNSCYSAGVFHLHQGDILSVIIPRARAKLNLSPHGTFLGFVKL


Legend:
[1] = biological target: T1, type I interferon (IFN) receptor …; assay: cell-based or functional assay
[2] = biological target: T1, type I interferon (IFN) receptor …; assay: cell-based or functional assay; remark: listed apart in the source
[3] = biological target: recombinant human BAFF (R&D cat: 7537-BF-025/CF) (human, UniProt Q9Y275 134-285, limits assumed); assay: cell-based or functional assay
[4] = biological target: T2, recombinant human ARPIL (R&D cat: …); assay: cell-based or functional assay
[5] = biological target: T3, APRIL (Acro Biosystems, Cat: APL-H52D1); assay: ELISA, APRIL coated, anti-human Fc-HRP, OD450
Procedure: The capabilities of fusion proteins B606401, B637302, B746201, and B805201 to bind to BAFF and APRIL were assessed by ELISA as follows:
(§1) BAFF (PeproTech, Cat: 310-13) or ARPIL (Acro Biosystems, Cat: APL-H52D1) was diluted to 1 μg/mL with PBS, and a 96-well plate was coated with the dilution overnight at 4° C. The plate was washed with PBST and blocked with Blocking Buffer (PBST containing 1% BSA) at 37° C. for 1 h. The plate was tapped. The test antibodies were diluted with Blocking Buffer. Incubation was performed at 37° C. for 1.5 h. The plate was washed with PBST. An HRP-mouse anti-human Fc antibody (GenScript, Cat: A01854-200) was diluted with Blocking Buffer. Incubation was performed at 37° C. for 40 min. The plate was washed with PBST. 100 μL of TMB substrate solution (Biopanda, Cat: TMB-S-003) was added, and color development was performed at 37° C. for 3 min. 100 μL of ELISA stop solution (Solarbio, Cat: C1058) was added. OD450 was measured.
The EC₅₀ value for the capability of B637302 to bind to APRIL decreased to 1/7 to ⅙ of that of telitacicept.

[6] = biological target: T3, APRIL (Acro Biosystems, Cat: APL-H52D1); assay: ELISA, APRIL coated, anti-human Fc-HRP, OD450; remark: listed apart in the source
Procedure: The capabilities of B613301, B613302, and B613303, which are fusion proteins of anifrolumab and TACI-BCMA, to bind to BAFF and APRIL were assessed by ELISA as follows:
as §1, with “96-well plate (Costar, Cat: 3590) was coated” for “96-well plate was coated”

IC50, inhibition of IFN-α-induced in vitro differentiation of B cells into plasma cells [1] [nM] | IC50 (nM), inhibition of the activity of type I interferons (IFN-β, HEK-Blue IFN-α/β cells) [2] [nM] | Flow cytometry proliferating B cell proportion (%), mean, BAFF-induced, drug at 10 nM [3] [%] | Flow cytometry proliferating B cell proportion (%), mean, BAFF-induced, drug at 100 nM [3] [%] | Flow cytometry proliferating B cell proportion (%), mean, BAFF-induced, drug at 1000 nM [3] [%] | Flow cytometry proliferating B cell proportion (%), mean, APRIL-induced, drug at 4.12 nM [4] [%] | Flow cytometry proliferating B cell proportion (%), mean, APRIL-induced, drug at 12.35 nM [4] [%] | Flow cytometry proliferating B cell proportion (%), mean, APRIL-induced, drug at 37.04 nM [4] [%] | Flow cytometry proliferating B cell proportion (%), mean, APRIL-induced, drug at 111.11 nM [4] [%] | Flow cytometry proliferating B cell proportion (%), mean, APRIL-induced, drug at 333.33 nM [4] [%] | Flow cytometry proliferating B cell proportion (%), mean, APRIL-induced, drug at 1000.00 nM [4] [%] | Emax [5] [nM] | Emax [6] [nM] | Binder
12.7 | 1.53 | – | – | – | – | – | – | – | – | – | – | – | Anifrolumab (antibody, human IgG1, kappa, V domains shown) VH: EVQLVQSGAEVKKPGESLKISCKGSGYIFTNYWIAWVRQMPGKGLESMGIIYPGDSDIRYSPSFQGQVTISADKSITTAYLQWSSLKASDTAMYYCARHDIEGFDYWGRGTLVTVSS VL: EIVLTQSPGTLSLSPGERATLSCRASQSVSSSFFAWYQQKPGQAPRLLIYGASSRATGIPDRLSGSGSGTDFTLTITRLEPEDFAVYYCQQYDSSAITFGQGTRLEIKR
10.8 | 1.59 | 23.8 | 22.2 | 10.9 | 50.6 | 50.7 | 53.6 | 51.5 | 48 | 33.6 | 2.9 | – | B637302 (other, Fusion protein of anifrolumab, TACI-19-16 and BCMA-ECD-2) heavy: EVQLVQSGAEVKKPGESLKISCKGSGYIFTNYWIAWVRQMPGKGLESMGIIYPGDSDIRYSPSFQGQVTISADKSITTAYLQWSSLKASDTAMYYCARHDIEGFDYWGRGTLVTVSSASTKGPSVFPLAPSSKSTSGGTAALGCLVKDYFPEPVTVSWNSGALTSGVHTFPAVLQSSGLYSLSSVVTVPSSSLGTQTYICNVNHKPSNTKVDKRVEPKSCDKTHTCPPCPAPEFEGGPSVFLFPPKPKDTLMISRTPEVTCVVVDVSHEDPEVKFNWYVDGVEVHNAKTKPREEQYNSTYRVVSVLTVLHQDWLNGKEYKCKVSNKALPASIEKTISKAKGQPREPQVYTLPPSRDELTKNQVSLTCLVKGFYPSDIAVEWESNGQPENNYKTTPPVLDSDGSFFLYSKLTVDKSRWQQGNVFSCSVMHEALHNHYTQKSLSLSPGK light: EIVLTQSPGTLSLSPGERATLSCRASQSVSSSFFAWYQQKPGQAPRLLIYGASSRATGIPDRLSGSGSGTDFTLTITRLEPEDFAVYYCQQYDSSAITFGQGTRLEIKRTVAAPSVFIFPPSDEQLKSGTASVVCLLNNFYPREAKVQWKVDNALQSGNSQESVTEQDSKDSTYSLSSTLTLSKADYEKHKVYACEVTHQGLSSPVTKSFNRGECGGGGSGGGGSMLQMAGQCSQNEYFDSLLHACIPCQLRCSSNTPPLTCQRYCSTSCREEQGEFYDHLLRDCISCASICGQHPKQCAAFCE
– | – | – | – | – | – | – | – | – | – | – | – | 2.33 | B613303 (other, Fusion protein of anifrolumab and TACI-BCMA) heavy: EVQLVQSGAEVKKPGESLKISCKGSGYIFTNYWIAWVRQMPGKGLESMGIIYPGDSDIRYSPSFQGQVTISADKSITTAYLQWSSLKASDTAMYYCARHDIEGFDYWGRGTLVTVSSASTKGPSVFPLAPSSKSTSGGTAALGCLVKDYFPEPVTVSWNSGALTSGVHTFPAVLQSSGLYSLSSVVTVPSSSLGTQTYICNVNHKPSNTKVDKRVEPKSCDKTHTCPPCPAPEFEGGPSVFLFPPKPKDTLMISRTPEVTCVVVDVSHEDPEVKFNWYVDGVEVHNAKTKPREEQYNSTYRVVSVLTVLHQDWLNGKEYKCKVSNKALPASIEKTISKAKGQPREPQVYTLPPSRDELTKNQVSLTCLVKGFYPSDIAVEWESNGQPENNYKTTPPVLDSDGSFFLYSKLTVDKSRWQQGNVFSCSVMHEALHNHYTQKSLSLSPGK light: EIVLTQSPGTLSLSPGERATLSCRASQSVSSSFFAWYQQKPGQAPRLLIYGASSRATGIPDRLSGSGSGTDFTLTITRLEPEDFAVYYCQQYDSSAITFGQGTRLEIKRTVAAPSVFIFPPSDEQLKSGTASVVCLLNNFYPREAKVQWKVDNALQSGNSQESVTEQDSKDSTYSLSSTLTLSKADYEKHKVYACEVTHQGLSSPVTKSFNRGECGGGGSGGGGSSRVDQEERFPQGLWTGVAMRSCPEEQYWDPLLGTCMSCKTICNHQSQRTCAAFCRSLSCRKEQGKFYDHLLRDCISCASICGQHPKQCAYFCENKLRSPVNLPPELMLQMAGQCSQNEYFDSLLHACIPCQLRCSSNTPPLTCQRYCNASVTNSVKGTNA
17.4 | 1.94 | 28.1 | 25.3 | 17.9 | 52 | 52.9 | 53.6 | 53.1 | 50.6 | 40.3 | 2.81 | – | B606401 (other, Anifrolumab with TACI-19-16 at the C-terminus of the light chain) heavy: EVQLVQSGAEVKKPGESLKISCKGSGYIFTNYWIAWVRQMPGKGLESMGIIYPGDSDIRYSPSFQGQVTISADKSITTAYLQWSSLKASDTAMYYCARHDIEGFDYWGRGTLVTVSSASTKGPSVFPLAPSSKSTSGGTAALGCLVKDYFPEPVTVSWNSGALTSGVHTFPAVLQSSGLYSLSSVVTVPSSSLGTQTYICNVNHKPSNTKVDKRVEPKSCDKTHTCPPCPAPEFEGGPSVFLFPPKPKDTLMISRTPEVTCVVVDVSHEDPEVKFNWYVDGVEVHNAKTKPREEQYNSTYRVVSVLTVLHQDWLNGKEYKCKVSNKALPASIEKTISKAKGQPREPQVYTLPPSRDELTKNQVSLTCLVKGFYPSDIAVEWESNGQPENNYKTTPPVLDSDGSFFLYSKLTVDKSRWQQGNVFSCSVMHEALHNHYTQKSLSLSPGK light: EIVLTQSPGTLSLSPGERATLSCRASQSVSSSFFAWYQQKPGQAPRLLIYGASSRATGIPDRLSGSGSGTDFTLTITRLEPEDFAVYYCQQYDSSAITFGQGTRLEIKRTVAAPSVFIFPPSDEQLKSGTASVVCLLNNFYPREAKVQWKVDNALQSGNSQESVTEQDSKDSTYSLSSTLTLSKADYEKHKVYACEVTHQGLSSPVTKSFNRGECGGGGSGGGGSSTSCREEQGEFYDHLLRDCISCASICGQHPKQCAAFCE
